Reference: patent publication US20260234276A1 (DOMAIN THERAPEUTICS, published 2026)
Residue numbers refer to the chain shown, from its start. Several values for one entry are separate records, joined by “and”; a condition that tells them apart may be missing. Identical values can stand only once.

B1: 3-12 (antibody, V domains shown)
VH: QVQLQQPGAVLVKPGASVKMSCKASGYTFTSYNMHWLKQTPGQGLEWIGAIAPGKGDTSHNQKFKGKATLTADKSSSTAYMQLSSLTSEDSAVYYCARRNNYEPFVYWGQGTLVTVSA
VL: DIVFTQSPASLAVSLGQRATISCRASESVEYYGTSLMQWYQQKPGQPPKLLIYAASNVESGVPARFSGSGSGTDFSLNIHPVEADDIAMYFCQQSRKVPFTFGSGTKLEIK
B2: 3-40 (antibody, V domains shown)
VH: QVQLKESGPGLVAPSQSLSITCTVSGLSMNDYVVTWIRQPPGKGLEWLGVIWGGGNTYYNSDLKSRLSITKDNSKSQVFFKMSSLQTDDTAVYYCARRHRDYALDYWGQGISVTVSS
VL: ENVLTQSPAIMSASPGEKVTMTCRASSSVSSSYLHWYQQKSGASPKLWIYSTSNLASGVPARFSGSGSGTSYSLTISSVEAEDAATYYCQQYSGYPYTFGGGTKLEIK
B3: 3-34 (antibody, V domains shown)
VH: EVQLQQSGPELVKPGASVKISCKTSGYTFTEYTIHWVKQSHGKSLEWVGGINPDNGNTRYDQKFKGKATLTIDKSSSTAYMELRSLTSEDSAVYYCARVARSSGSGPYAMDYWGQGTSVTVSS
VL: DVVMTQTPLSLPVSLGDQASISCRCTQSLLHTNGDTYLHWYLQKPGQSPKLLIYKVSNRFSGVPDRFSGSGSGTDFTLKISRVEAEDLGVYFCSQSTHVPYTFGGGTKLEIK
B4: 3-44 (antibody, V domains shown)
VH: QVQLKESGPGLVAPSQSLSITCTVSGFSLTDYGVSWIRQPPGKGPEWLGVIWGGGNTYYNSVLKSRLSISNDNSKSQVFLRMNSLQTADTAIYYCARPRRDYYALDYWGQGTSVTVAS
VL: B3 VL with C25S, T26S, L30V, H31Y, D35N, Y37F, Y101P
B5: 3-42 (antibody, V domains shown)
VH: QVQLKESGPGLVAPSQSLSITCTVSGFSLTDYRVSWIRQPPGKGLEWLGVIWGGRSTYYNSALKSRLSISKDNSKSQVFLKMNSLQTDDTAMYYCAKQGDGYYALDYWGQGTSVTVSS
VL: B3 VL with C25S, T26S, L30V, T32S, N33Y, D35N, S68H, Y101P
B6: 3-52 (antibody, V domains shown)
VH: QVQLQQPGSELVRPGASVKLSCKASGYTFTSYWMHWVKQRPGQGLEWIGNIWPGSASTNYDEKFKNKATLTVDTSSSTAYMQLSSLTSEDSAVYYCIRGGKGAMDYWSQGTSVTVSS
VL: DVVMTQIPLSLPVSLGDQASISCRSSQSLENSYGNTYLNWYLQKPGQSPQLLIYRVSNRFSGVLDRFSGSGSGTDFTLKISRVEAEDLGVYFCLQVTHVPPTFGAGTKLELK
B7: 3-31 (antibody, V domains shown)
VH: DVQLQESGPGLVKPSQSLSLTCTVTGYSITSNYAWNWIRQFPGNKLEWMVYITYSGSTRFNPSLKSRISITRDTSKNQFFLQLNSVTTEDTATYYCARGENLFAYWGQGTLVIVSA
VL: DVVMTQTPLSLPVSLGDQASISCRSSQSLVHNNGNTYLHWYLQKPGQSPKLLIYKVSNRFSGVPDRFSGSGSGTDFTLKINRLEAEDLGVYFCSQSTYVPLTFGAGTKLELK
B8: 3-23 (antibody, V domains shown)
VH: QVQLVETGGGLVRPGNSLKLSCVISGFTFSNYRIHWLRQPPGKRLEWIAVITVKSDNYEANYAESVKGRFTISRDDSKSSVYLQMNRLREEDTATYYCSRPDGFSPFVYWGQGTLVTVSA
VL: DIKMTQSPSSMYASLGERVTITCKASQDINNYLSWFQQKPGKSPKTLIYRADRLVDGVPSRFSGSGSGQDYSLTISSLDYEDMGIYYCLQYAEFPPTFGAGTKLELK
B9: 3-51 (antibody, V domains shown)
VH: QVQLQQSGAELVRPGVSVKISCKGSGYTFTDYAIHWVKQRHAKSLEWIGVISTYYGDTRYNQKFKGKATMTVDKSSNTAYMELARLTSEDSAIYYCARGGLRQDYAMNYWGQGTSVTVSS
VL: not shown

The binders below were run against T1, human CCR8 (human, UniProt P51685 1-355) (assay: flow cytometry, hCCR8 transfected CHOK1 cells).
T1 construct: the cells are named under assay; also called hCCR8
Description: Briefly, 1·10⁵ cells per well in a 96 well plate were incubated with a dilution of unconjugated anti-CCR8 mAb at 10 μg/mL then diluted at 1/3.33, 4 dilution points (during 30 min at 4° C.). […] To determine EC50 value, 8 concentrations of anti-CCR8 mAb were tested. Unbound antibodies were washed away with PBS (Invitrogen by Thermofisher Scientific, Illkirch-Graffenstaden, France) supplemented by 2% Fetal Bovine Serum (Invitrogen by Thermofisher Scientific, Illkirch-Graffenstaden, France) and 2 mM EDTA (Invitrogen by Thermofisher Scientific, Illkirch-Graffenstaden, France). Subsequently, cells are centrifuged (5 min at 400 g) and bound antibody is detected with F(ab′)₂-Goat anti-Mouse IgG (H+L) Cross-Adsorbed Secondary Antibody, Alexa Fluor 488 (dilution 1/500) (Invitrogen by Thermofisher Scientific, Illkirch-Graffenstaden, France) or with F(ab′)₂-Goat anti-Human IgG Fc Secondary Antibody, PE (Invitrogen by Thermofisher Scientific, Illkirch-Graffenstaden, France) (dilution 1/1000) at 4° C. for 30 min. Detection reagent is washed away and cells are centrifuged (5 min at 400 g) and resuspended in 30 μL PBS. Bound detection antibody is quantified on a MacsQuant16 (Miltenyi, Gladbach, Germany) (B1 or B2 channel, 5000 events per acquisition).
With B1 the “% positive cells” value was 87.8% and the “MFI fold change to isotype ctrl” value was 14.9 fold.
With B2 the “% positive cells” value was 69.9% and the “MFI fold change to isotype ctrl” value was 5.81 fold.
With B3 the “% positive cells” value was 73.7% and the “MFI fold change to isotype ctrl” value was 10.3 fold.
B4 was tested, and the “% positive cells” value was 78.9% and the “MFI fold change to isotype ctrl” value was 6.36 fold.
In the case of B5, the “% positive cells” value is reported as 57.7% and the “MFI fold change to isotype ctrl” value is reported as 3.84 fold.
In the case of B6, the “% positive cells” value is reported as 81.6% and the “MFI fold change to isotype ctrl” value is reported as 9.92 fold.
In the case of B7, the “% positive cells” value is reported as 65.6% and the “MFI fold change to isotype ctrl” value is reported as 5.35 fold.
B8 was tested, and the “% positive cells” value was 80% and the “MFI fold change to isotype ctrl” value was 12.7 fold.
With B9 the “% positive cells” value was 73.2% and the “MFI fold change to isotype ctrl” value was 6.91 fold.

What follows are binders tested against T1, human CCR8 (assay: cell-based or functional assay).
With B6 the “hCCL1 (100 nM) residual response, Protocol #2, mAb 0.08 µg/mL” value was 99%, the “hCCL1 (100 nM) residual response, Protocol #2, mAb 0.4 µg/mL” value was 83% and the “hCCL1 (100 nM) residual response, Protocol #2, mAb 10 µg/mL” value was 56%. For the same binder, the “hCCL1 (100 nM) residual response, Protocol #3, mAb 0.05 µg/mL” value was 116%, the “hCCL1 (100 nM) residual response, Protocol #3, mAb 0.5 µg/mL” value was 90% and the “hCCL1 (100 nM) residual response, Protocol #3, mAb 5 µg/mL” value was 45%.

These binders were tested against pm8 (human, sulfated tyrosines at Y15, Y16 and Y17) (assay: ELISA on coated peptide [cont.]).
pm8 (human, sulfated tyrosines at Y15, Y16 and Y17), sequence (peptide, as listed by the source): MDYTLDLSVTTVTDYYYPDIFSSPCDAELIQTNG
Description: (§1) The specific binding properties of antibodies were evaluated by ELISA with coated CCR8 related peptides (500 ng/mL) in carbonate/bicarbonate buffer. Different peptides were used as described in Table 1 (see Example 1). Each anti-CCR8 mAb was tested at 1 μg/mL then diluted at 1/10. After an incubation at room temperature during 90 min, unbound mAbs were removed by washings. […] After washings, 3,3′,5,5′-tetramethylbenzidine (TMB) (Interchim, Montlugon, France) was added for 15 min. Then the optical density (OD) was determined by using a multiplate reader (Tecan, Lyon, France) and correlated with mAb reactivity on the panel of coated peptides.
B1: binds.
B2: binds.
B3: binds.
B4: binds.
B5: binds.
B7: binds.
B8: binds.
B9: binds.

Each binder was assayed against pm5 (human, sulfated tyrosines at Y15 and Y17) (assay: ELISA on coated peptide [cont.]).
pm5 (human, sulfated tyrosines at Y15 and Y17), sequence (peptide, as listed by the source): as above
Description: as §1
B1: binds.
B2: binds.
B3: binds.
B4: binds.
B5: binds.
B7: binds.
B8: binds.
B9: binds.

Each binder was assayed against pm6 (human, sulfated tyrosines at Y16 and Y17) (assay: ELISA on coated peptide [cont.]).
pm6 (human, sulfated tyrosines at Y16 and Y17), sequence (peptide, as listed by the source): as above
Description: as §1
B1: binds.
B2: binds.
B3: binds.
B4: binds.
B5: binds.
B7: binds.
B8: binds.

The binders below were run against pm3 (human, sulfated tyrosine at Y17) (assay: ELISA on coated peptide [cont.]).
pm3 (human, sulfated tyrosine at Y17), sequence (peptide, as listed by the source): as above
Description: as §1
B2: binds.
B3: binds.
B4: binds.
B5: binds.
B7: binds.
B8: binds.

Target: T1, human CCR8
Test: cell-based or functional assay
Remark: another data set of the same source
With B1 the “IC50 (Gi2 BRET, pH 6.5)” value was 0.037 µg/ml and 0.248 nM and the “IC50 (Gi2 BRET, pH 7.4)” value was 0.088 µg/ml and 0.587 nM.
With B3 the “IC50 (Gi2 BRET, pH 6.5)” value was 0.207 µg/ml and 1.38 nM and the “IC50 (Gi2 BRET, pH 7.4)” value was 0.281 µg/ml and 1.88 nM.
With B4 the “IC50 (Gi2 BRET, pH 6.5)” value was 0.578 µg/ml and 3.85 nM and the “IC50 (Gi2 BRET, pH 7.4)” value was 0.812 µg/ml and 5.41 nM.
In the case of B5, the “IC50 (Gi2 BRET, pH 6.5)” value is reported as 0.516 µg/ml and 3.44 nM and the “IC50 (Gi2 BRET, pH 7.4)” value is reported as 0.82 µg/ml and 5.47 nM.
In the case of B6, the “IC50 (Gi2 BRET, pH 6.5)” value is reported as 0.078 µg/ml and 0.523 nM and the “IC50 (Gi2 BRET, pH 7.4)” value is reported as 0.087 µg/ml and 0.579 nM.
With B7 the “IC50 (Gi2 BRET, pH 6.5)” value was 0.163 µg/ml and 1.09 nM and the “IC50 (Gi2 BRET, pH 7.4)” value was 0.237 µg/ml and 1.58 nM.
In the case of B8, the “IC50 (Gi2 BRET, pH 6.5)” value is reported as > 4.5 µg/ml and > 30 nM and the “IC50 (Gi2 BRET, pH 7.4)” value is reported as > 4.5 µg/ml and > 30 nM.
With B9 the “IC50 (Gi2 BRET, pH 6.5)” value was > 67 nM and > 10 µg/ml and the “IC50 (Gi2 BRET, pH 7.4)” value was > 10 µg/ml and > 67 nM.
